In paper PMC5389673 (Nucleic Acids Research, 2016):

Target: the molecule itself
Test: crystal structure

Row | Protein | stoichiometry N
1 | VapC1 toxin from Caulobacter crescentus CB15, full length, seleno-methionine substituted (natural protein, seleno-methionine in place of methionine) MAYVLDTNVAIHLRDGDPEVTTRVTALNGAILLSIISRVELEGGVYREAAQAGLRRSRLDVMLKVLPVLDFDGAAADEYRRIVESAGYSRRKVVDRMIAAQALAHRATFVTFNADDFRDIPGLSLLAW | 2
2 | VapB1 antitoxin from Caulobacter crescentus CB15, full length, seleno-methionine substituted (natural protein, UniProt Q9AC34 1-79, looked up, seleno-methionine in place of methionine) MARATGKTFRSGNSEAVRLPRDLAFGADVELTLIRSGDVLTIYPSKGSIADLVATLNQMPRPDSVEIRDEDLFPERPGL | 2
